Drawing on PMC7383237, “Diversification of DNA-Binding Specificity by Permissive and Specificity-Switching Mutations in the ParB/Noc Protein Family”, this text covers binding result and Kd for 17 molecules.

Data set [1] concerns the target T1, ParB PtoN7 (QTAR) (Caulobacter crescentus, UniProt B8GW30 1-304, R173Q;G201R).
T1 sequence: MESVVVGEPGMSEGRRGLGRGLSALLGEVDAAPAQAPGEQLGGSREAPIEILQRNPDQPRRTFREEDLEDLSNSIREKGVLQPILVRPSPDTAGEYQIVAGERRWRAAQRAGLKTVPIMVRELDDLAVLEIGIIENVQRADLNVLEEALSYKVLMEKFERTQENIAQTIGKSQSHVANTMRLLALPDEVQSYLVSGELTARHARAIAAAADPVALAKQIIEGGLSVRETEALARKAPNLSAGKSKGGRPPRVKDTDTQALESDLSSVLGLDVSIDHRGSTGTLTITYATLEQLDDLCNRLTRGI
The data set is described as follows: BLI; 1000 nM dimer; BLI: 100 mM Tris-HCl pH 7.4, 150 mM NaCl, 1 mM EDTA, 0.005% Tween 20; temperature not stated; biotinylated DNA on streptavidin sensor, protein typically 0-1000. Conditions: protein: recombinant; tags: C-terminal His6; chain copies: 2; label: 5' biotin on strand 1; blunt.

Data set [2] deals with T2, ParB PtoN1 (QTAG) (Caulobacter crescentus, UniProt B8GW30 1-304, R173Q).
T2 sequence: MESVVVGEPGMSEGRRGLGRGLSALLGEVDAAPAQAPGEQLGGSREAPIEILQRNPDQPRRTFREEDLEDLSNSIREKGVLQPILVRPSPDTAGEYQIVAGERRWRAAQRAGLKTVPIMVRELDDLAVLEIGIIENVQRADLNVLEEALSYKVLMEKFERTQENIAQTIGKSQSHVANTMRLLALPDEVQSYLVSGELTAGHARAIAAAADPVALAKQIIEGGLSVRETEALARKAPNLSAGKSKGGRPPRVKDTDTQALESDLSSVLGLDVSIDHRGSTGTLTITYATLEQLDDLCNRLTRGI
The data set is described as above. To be noted: protein: recombinant; tags: C-terminal His6; chain copies: 2; label: 5' biotin on strand 1; blunt.

For data set [3], the target named is T3, ParB DBD (Caulobacter crescentus, UniProt B8GW30 126-243).
T3 sequence: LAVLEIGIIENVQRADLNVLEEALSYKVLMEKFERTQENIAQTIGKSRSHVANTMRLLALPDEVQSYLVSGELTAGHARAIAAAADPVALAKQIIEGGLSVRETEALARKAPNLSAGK
As to the kind of experiment: X-ray crystallography 2.4 A; BLI: 100 mM Tris-HCl pH 7.4, 150 mM NaCl, 1 mM EDTA, 0.005% Tween 20; temperature not stated; biotinylated DNA on streptavidin sensor, protein typically 0-1000. To be noted: protein: recombinant; tags: C-terminal His6; chain copies: 2; blunt; palindrome, 2 strand copies.

Data set [4] deals with T4, ParB WT (RTAG) (Caulobacter crescentus, UniProt B8GW30 1-304).
T4 sequence: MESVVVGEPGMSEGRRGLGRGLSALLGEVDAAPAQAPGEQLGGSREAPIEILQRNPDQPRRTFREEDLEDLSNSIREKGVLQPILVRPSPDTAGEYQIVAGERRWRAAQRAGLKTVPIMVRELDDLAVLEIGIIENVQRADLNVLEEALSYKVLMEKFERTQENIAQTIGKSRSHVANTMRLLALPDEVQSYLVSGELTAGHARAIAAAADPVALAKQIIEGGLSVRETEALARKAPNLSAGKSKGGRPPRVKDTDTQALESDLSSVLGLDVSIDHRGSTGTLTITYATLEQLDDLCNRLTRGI
As to the kind of experiment: BLI; BLI: 100 mM Tris-HCl pH 7.4, 150 mM NaCl, 1 mM EDTA, 0.005% Tween 20; temperature not stated; biotinylated DNA on streptavidin sensor, protein typically 0-1000. To be noted: protein: recombinant; tags: C-terminal His6; chain copies: 2; label: 5' biotin on strand 1; blunt. In general terms: In BLI a coated tip is dipped into the sample, and binding shifts an interference pattern.

B1: site14 (dsDNA)
DNA 1: GGGATATTTCGCGCGAAATA
DNA 2: TATTTCGCGCGAAATATCCC
As for B1, the binding result in data set [1] and in data set [2] was “no binding” each time.

B2: site1 (dsDNA)
DNA 1: GGGATGTTTCTCGAGAAACA
DNA 2: TGTTTCTCGAGAAACATCCC
Regarding B2, the binding result in data set [1] and in data set [2] was “no binding” throughout.

B3: parS 20-bp crystal duplex (dsDNA)
DNA 1: GATGTTTCACGTGAAACATC
DNA 2: GATGTTTCACGTGAAACATC
As to B3, the binding result in data set [3] is “binds”.

B4: site7 (dsDNA)
DNA 1: GGGATCTTTCCCGGGAAAGA
DNA 2: TCTTTCCCGGGAAAGATCCC
As for B4, the binding result in data set [1] and in data set [2] was “no binding” throughout.

B5: site4 (dsDNA)
DNA 1: GGGATCTTTCACGTGAAAGA
DNA 2: TCTTTCACGTGAAAGATCCC
Turning to B5, the binding result in data set [1] and in data set [2] was “no binding” throughout.

B6: site6 (dsDNA)
DNA 1: GGGATCTTTCGCGCGAAAGA
DNA 2: TCTTTCGCGCGAAAGATCCC
For the molecule B6, the binding result in data set [1] and in data set [2] was “no binding” throughout.

B7: site10 (dsDNA)
DNA 1: GGGATTTTTCGCGCGAAAAA
DNA 2: TTTTTCGCGCGAAAAATCCC
In the case of B7, the binding result in data set [1] and in data set [2] was “no binding” in each case.

B8: site13 (dsDNA)
DNA 1: GGGATATTTCTCGAGAAATA
DNA 2: TATTTCTCGAGAAATATCCC
Turning to B8, the binding result in data set [1] and in data set [2] was “no binding” in each case.

B9: NBS BLI duplex (dsDNA)
DNA 1: GGGATATTTCCCGGGAAATA
DNA 2: TATTTCCCGGGAAATATCCC
B9: the binding result in data set [1] and in data set [2] was “no binding” each time.

B10: site5 (dsDNA)
DNA 1: GGGATCTTTCTCGAGAAAGA
DNA 2: TCTTTCTCGAGAAAGATCCC
In the case of B10, the binding result in data set [1] and in data set [2] was “no binding” throughout.

B11: parS BLI duplex (dsDNA)
DNA 1: GGGATGTTTCACGTGAAACA
DNA 2: TGTTTCACGTGAAACATCCC
What is called Kd is the equilibrium constant for the complex coming apart. As for B11, in data set [4], the Kd worked out at 11 ± 7 nM. For the same molecule, the binding result in data set [1] and in data set [2] was “no binding” throughout.

B12: site12 (dsDNA)
DNA 1: GGGATATTTCACGTGAAATA
DNA 2: TATTTCACGTGAAATATCCC
In the case of B12, the binding result in data set [1] and in data set [2] was “no binding” each time.

B13: site8 (dsDNA)
DNA 1: GGGATTTTTCACGTGAAAAA
DNA 2: TTTTTCACGTGAAAAATCCC
As for B13, the binding result in data set [1] and in data set [2] was “no binding” in each case.

B14: site3 (dsDNA)
DNA 1: GGGATGTTTCCCGGGAAACA
DNA 2: TGTTTCCCGGGAAACATCCC
Regarding B14, the binding result in data set [1] and in data set [2] was “no binding” in each case.

B15: site2 (dsDNA)
DNA 1: GGGATGTTTCGCGCGAAACA
DNA 2: TGTTTCGCGCGAAACATCCC
Turning to B15, the binding result in data set [1] and in data set [2] was “no binding” each time.

B16: site9 (dsDNA)
DNA 1: GGGATTTTTCTCGAGAAAAA
DNA 2: TTTTTCTCGAGAAAAATCCC
B16: the binding result in data set [1] and in data set [2] was “no binding” throughout.

B17: site11 (dsDNA)
DNA 1: GGGATTTTTCCCGGGAAAAA
DNA 2: TTTTTCCCGGGAAAAATCCC
For the molecule B17, the binding result in data set [1] and in data set [2] was “no binding” each time.
